From patent US20200317779A1

Columns and labels:
[1] = biological target: recombinant cynomolgus monkey CD3ε/δ heterodimer (cynomolgus monkey) (UniProt Q95LI5); assay: ELISA, coated CD3ε/δ
[2] = biological target: recombinant human CD3ε/δ heterodimer (human) (UniProt P07766); assay: ELISA, coated CD3ε/δ
Sequence of recombinant human CD3ε/δ heterodimer (human) (P07766 23-126, stated change not applied, chain 1 of 2): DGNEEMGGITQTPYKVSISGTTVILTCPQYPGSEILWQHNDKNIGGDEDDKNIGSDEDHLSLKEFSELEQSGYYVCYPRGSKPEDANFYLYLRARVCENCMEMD
Sequence of recombinant human CD3ε/δ heterodimer (human) (P04234 22-105, stated change not applied, chain 2 of 2, further chain): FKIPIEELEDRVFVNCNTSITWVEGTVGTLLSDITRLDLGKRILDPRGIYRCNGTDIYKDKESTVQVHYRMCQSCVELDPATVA

Sequence of recombinant cynomolgus monkey CD3ε/δ heterodimer (cynomolgus monkey) (Q95LI5 22-117, stated change not applied, chain 1 of 2): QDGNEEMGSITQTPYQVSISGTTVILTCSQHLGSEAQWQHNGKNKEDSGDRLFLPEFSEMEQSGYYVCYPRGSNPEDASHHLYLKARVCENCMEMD
Sequence of recombinant cynomolgus monkey CD3ε/δ heterodimer (cynomolgus monkey) (Q95LI8 22-105, stated change not applied, chain 2 of 2, further chain): as the sequence (P04234 22-105, stated change not applied, chain 2 of 2, further chain) above, with I5V, N15K, I20V, S32T, D33N, I34N, T64A, S74N, V83L counted along it

B1: H13 (antibody, human IgG1, lambda, L234A L235A, V domains shown)
VH: EVQLVESGGGLVQPGGSLKLSCAASGFTFNTYAMNWVRQASGKGLEWVARIRSKYNNYATYYADSVKDRFTISRDDSQSTLYLQMNSLKTEDTAVYYCVRHGNFGNSYVSWFAYWGQGTLVTVSS
VL: QAVVTQEPSLTVSPGGTVTLTCRSSTGAVTTSNYANWVQQKPGQAPRGLIYGTNKRAPWTPARFSGSLLGGKAALTLSGAQPEDEAEYYCALWYSNLWVFGGGTKLTVLG
Absorbance (450 nm) [1]: 0.196 | Absorbance (450 nm) [2]: 0.175

B2: B04 (antibody, human IgG1, lambda, L234A L235A, V domains shown)
VH: EVQLVESGGGLVQPGGSLKLSCAASGFTFNTYAMNWVRQASGKGLEWVGRIRSKYNNYATYYADSVKDRFTISRDDSKNTLYLQMNSLKTEDTAVYYCVRHGNFGNSYVSWFAYWGQGTLVTVSS
VL: QAVVTQEPSLTVSPGGTVTLTCRSSTGAVTTSNYANWFQQKPGQAPRTLIGGTNKRAPWTPARFSGSLLGDKAALTLSGAQPEDEAEYYCALWYSNLWVFGGGTKLTVLG
Absorbance (450 nm) [1]: 0.059 | Absorbance (450 nm) [2]: 0.087

B3: B01 (antibody, human IgG1, lambda, L234A L235A, V domains shown)
VH: EVQLVESGGGLVQPGGSLKLSCAASGFTFNTYAMNWVRQASGKGLEWVGRIRSKYNNYATYYADSVKDRFTISRDDSKNTLYLQMNSLKTEDTAVYYCVRHGNFGNSYVSWFAYWGQGTLVTVSS
VL: QAVVTQEPSLTVSPGGTVTLTCRSSTGAVTTSNYANWFQQKPGQAPRTLIYGTNKRAPWTPARFSGSLLGGKAALTLSGAQPEDEAEYYCALWYSNLWVFGGGTKLTVLG
Absorbance (450 nm) [1]: 0.071 | Absorbance (450 nm) [2]: 0.097

B4: B03 (antibody, human IgG1, lambda, L234A L235A, V domains shown)
VH: EVQLVESGGGLVQPGGSLKLSCAASGFTFNTYAMNWVRQASGKGLEWVGRIRSKYNNYATYYADSVKDRFTISRDDSKNTLYLQMNSLKTEDTAVYYCVRHGNFGNSYVSWFAYWGQGTLVTVSS
VL: QAVVTQEPSLTVSPGGTVTLTCRSSTGAVTTSNYANWFQQKPGQAPRTLIGGTNKRAPWTPARFSGSLLGGKAALTLSGAQPEDEAEYYCALWYSNLWVFGGGTKLTVLG
Absorbance (450 nm) [1]: 0.091 | Absorbance (450 nm) [2]: 0.126

B5: B02 (antibody, human IgG1, lambda, L234A L235A, V domains shown)
VH: EVQLVESGGGLVQPGGSLKLSCAASGFTFNTYAMNWVRQASGKGLEWVGRIRSKYNNYATYYADSVKDRFTISRDDSKNTLYLQMNSLKTEDTAVYYCVRHGNFGNSYVSWFAYWGQGTLVTVSS
VL: QAVVTQEPSLTVSPGGTVTLTCRSSTGAVTTSNYANWFQQKPGQAPRTLIYGTNKRAPWTPARFSGSLLGDKAALTLSGAQPEDEAEYYCALWYSNLWVFGGGTKLTVLG
Absorbance (450 nm) [1]: 0.072 | Absorbance (450 nm) [2]: 0.086

B6: C01 (antibody, human IgG1, lambda, L234A L235A, V domains shown)
VH: EVQLVESGGGLVQPGGSLKLSCAASGFTFNTYAMNWVRQASGKGLEWVGRIRSKYNNYATYYADSVKDRFTISRDDSQSTAYLQMNSLKTEDTAVYYCVRHGNFGNSYVSWFAYWGQGTLVTVSS
VL: QAVVTQEPSLTVSPGGTVTLTCRSSTGAVTTSNYANWFQQKPGQAPRTLIYGTNKRAPWTPARFSGSLLGGKAALTLSGAQPEDEAEYYCALWYSNLWVFGGGTKLTVLG
Absorbance (450 nm) [1]: 0.075 | Absorbance (450 nm) [2]: 0.131

B7: A13 (antibody, human IgG1, lambda, L234A L235A, V domains shown)
VH: EVQLVESGGGLVQPGGSLKLSCAASGFTFNTYAMNWVRQASGKGLEWVGRIRSKYNNYATYYADSVKDRFTISRDDSKNTAYLQMNSLKTEDTAVYYCVRHGNFGNSYVSWFAYWGQGTLVTVSS
VL: QAVVTQEPSLTVSPGGTVTLTCRSSTGAVTTSNYANWVQQKPGQAPRGLIYGTNKRAPWTPARFSGSLLGGKAALTLSGAQPEDEAEYYCALWYSNLWVFGGGTKLTVLG
Absorbance (450 nm) [1]: 0.154 | Absorbance (450 nm) [2]: 0.172

B8: B12 (antibody, human IgG1, lambda, L234A L235A, V domains shown)
VH: EVQLVESGGGLVQPGGSLKLSCAASGFTFNTYAMNWVRQASGKGLEWVGRIRSKYNNYATYYADSVKDRFTISRDDSKNTLYLQMNSLKTEDTAVYYCVRHGNFGNSYVSWFAYWGQGTLVTVSS
VL: QAVVTQEPSLTVSPGGTVTLTCRSSTGAVTTSNYANWVQQKPGQAPRTLIGGTNKRAPWTPARFSGSLLGDKAALTLSGAQPEDEAEYYCALWYSNLWVFGGGTKLTVLG
Absorbance (450 nm) [1]: 0.072 | Absorbance (450 nm) [2]: 0.098

B9: A03 (antibody, human IgG1, lambda, L234A L235A, V domains shown)
VH: EVQLVESGGGLVQPGGSLKLSCAASGFTFNTYAMNWVRQASGKGLEWVGRIRSKYNNYATYYADSVKDRFTISRDDSKNTAYLQMNSLKTEDTAVYYCVRHGNFGNSYVSWFAYWGQGTLVTVSS
VL: QAVVTQEPSLTVSPGGTVTLTCRSSTGAVTTSNYANWFQQKPGQAPRTLIGGTNKRAPWTPARFSGSLLGGKAALTLSGAQPEDEAEYYCALWYSNLWVFGGGTKLTVLG
Absorbance (450 nm) [1]: 0.094 | Absorbance (450 nm) [2]: 0.132

B10: A14 (antibody, human IgG1, lambda, L234A L235A, V domains shown)
VH: EVQLVESGGGLVQPGGSLKLSCAASGFTFNTYAMNWVRQASGKGLEWVGRIRSKYNNYATYYADSVKDRFTISRDDSKNTAYLQMNSLKTEDTAVYYCVRHGNFGNSYVSWFAYWGQGTLVTVSS
VL: QAVVTQEPSLTVSPGGTVTLTCRSSTGAVTTSNYANWVQQKPGQAPRGLIYGTNKRAPWTPARFSGSLLGDKAALTLSGAQPEDEAEYYCALWYSNLWVFGGGTKLTVLG
Absorbance (450 nm) [1]: 0.113 | Absorbance (450 nm) [2]: 0.125

B11: H14 (antibody, human IgG1, lambda, L234A L235A, V domains shown)
VH: EVQLVESGGGLVQPGGSLKLSCAASGFTFNTYAMNWVRQASGKGLEWVARIRSKYNNYATYYADSVKDRFTISRDDSQSTLYLQMNSLKTEDTAVYYCVRHGNFGNSYVSWFAYWGQGTLVTVSS
VL: QAVVTQEPSLTVSPGGTVTLTCRSSTGAVTTSNYANWVQQKPGQAPRGLIYGTNKRAPWTPARFSGSLLGDKAALTLSGAQPEDEAEYYCALWYSNLWVFGGGTKLTVLG
Absorbance (450 nm) [1]: 0.094 | Absorbance (450 nm) [2]: 0.096

B12: B14 (antibody, human IgG1, lambda, L234A L235A, V domains shown)
VH: EVQLVESGGGLVQPGGSLKLSCAASGFTFNTYAMNWVRQASGKGLEWVGRIRSKYNNYATYYADSVKDRFTISRDDSKNTLYLQMNSLKTEDTAVYYCVRHGNFGNSYVSWFAYWGQGTLVTVSS
VL: QAVVTQEPSLTVSPGGTVTLTCRSSTGAVTTSNYANWVQQKPGQAPRGLIYGTNKRAPWTPARFSGSLLGDKAALTLSGAQPEDEAEYYCALWYSNLWVFGGGTKLTVLG
Absorbance (450 nm) [1]: 0.102 | Absorbance (450 nm) [2]: 0.127

B13: B13 (antibody, human IgG1, lambda, L234A L235A, V domains shown)
VH: EVQLVESGGGLVQPGGSLKLSCAASGFTFNTYAMNWVRQASGKGLEWVGRIRSKYNNYATYYADSVKDRFTISRDDSKNTLYLQMNSLKTEDTAVYYCVRHGNFGNSYVSWFAYWGQGTLVTVSS
VL: QAVVTQEPSLTVSPGGTVTLTCRSSTGAVTTSNYANWVQQKPGQAPRGLIYGTNKRAPWTPARFSGSLLGGKAALTLSGAQPEDEAEYYCALWYSNLWVFGGGTKLTVLG
Absorbance (450 nm) [1]: 0.156 | Absorbance (450 nm) [2]: 0.169

B14: A02 (antibody, human IgG1, lambda, L234A L235A, V domains shown)
VH: EVQLVESGGGLVQPGGSLKLSCAASGFTFNTYAMNWVRQASGKGLEWVGRIRSKYNNYATYYADSVKDRFTISRDDSKNTAYLQMNSLKTEDTAVYYCVRHGNFGNSYVSWFAYWGQGTLVTVSS
VL: QAVVTQEPSLTVSPGGTVTLTCRSSTGAVTTSNYANWFQQKPGQAPRTLIYGTNKRAPWTPARFSGSLLGDKAALTLSGAQPEDEAEYYCALWYSNLWVFGGGTKLTVLG
Absorbance (450 nm) [1]: 0.068 | Absorbance (450 nm) [2]: 0.098

B15: B05 (antibody, human IgG1, lambda, L234A L235A, V domains shown)
VH: EVQLVESGGGLVQPGGSLKLSCAASGFTFNTYAMNWVRQASGKGLEWVGRIRSKYNNYATYYADSVKDRFTISRDDSKNTLYLQMNSLKTEDTAVYYCVRHGNFGNSYVSWFAYWGQGTLVTVSS
VL: QAVVTQEPSLTVSPGGTVTLTCRSSTGAVTTSNYANWFQQKPGQAPRGLIYGTNKRAPWTPARFSGSLLGGKAALTLSGAQPEDEAEYYCALWYSNLWVFGGGTKLTVLG
Absorbance (450 nm) [1]: 0.1 | Absorbance (450 nm) [2]: 0.102

B16: B10 (antibody, human IgG1, lambda, L234A L235A, V domains shown)
VH: EVQLVESGGGLVQPGGSLKLSCAASGFTFNTYAMNWVRQASGKGLEWVGRIRSKYNNYATYYADSVKDRFTISRDDSKNTLYLQMNSLKTEDTAVYYCVRHGNFGNSYVSWFAYWGQGTLVTVSS
VL: QAVVTQEPSLTVSPGGTVTLTCRSSTGAVTTSNYANWVQQKPGQAPRTLIYGTNKRAPWTPARFSGSLLGDKAALTLSGAQPEDEAEYYCALWYSNLWVFGGGTKLTVLG
Absorbance (450 nm) [1]: 0.076 | Absorbance (450 nm) [2]: 0.098

B17: B06 (antibody, human IgG1, lambda, L234A L235A, V domains shown)
VH: EVQLVESGGGLVQPGGSLKLSCAASGFTFNTYAMNWVRQASGKGLEWVGRIRSKYNNYATYYADSVKDRFTISRDDSKNTLYLQMNSLKTEDTAVYYCVRHGNFGNSYVSWFAYWGQGTLVTVSS
VL: QAVVTQEPSLTVSPGGTVTLTCRSSTGAVTTSNYANWFQQKPGQAPRGLIYGTNKRAPWTPARFSGSLLGDKAALTLSGAQPEDEAEYYCALWYSNLWVFGGGTKLTVLG
Absorbance (450 nm) [1]: 0.143 | Absorbance (450 nm) [2]: 0.138

B18: B09 (antibody, human IgG1, lambda, L234A L235A, V domains shown)
VH: EVQLVESGGGLVQPGGSLKLSCAASGFTFNTYAMNWVRQASGKGLEWVGRIRSKYNNYATYYADSVKDRFTISRDDSKNTLYLQMNSLKTEDTAVYYCVRHGNFGNSYVSWFAYWGQGTLVTVSS
VL: QAVVTQEPSLTVSPGGTVTLTCRSSTGAVTTSNYANWVQQKPGQAPRTLIYGTNKRAPWTPARFSGSLLGGKAALTLSGAQPEDEAEYYCALWYSNLWVFGGGTKLTVLG
Absorbance (450 nm) [1]: 0.099 | Absorbance (450 nm) [2]: 0.096

B19: B11 (antibody, human IgG1, lambda, L234A L235A, V domains shown)
VH: EVQLVESGGGLVQPGGSLKLSCAASGFTFNTYAMNWVRQASGKGLEWVGRIRSKYNNYATYYADSVKDRFTISRDDSKNTLYLQMNSLKTEDTAVYYCVRHGNFGNSYVSWFAYWGQGTLVTVSS
VL: QAVVTQEPSLTVSPGGTVTLTCRSSTGAVTTSNYANWVQQKPGQAPRTLIGGTNKRAPWTPARFSGSLLGGKAALTLSGAQPEDEAEYYCALWYSNLWVFGGGTKLTVLG
Absorbance (450 nm) [1]: 0.107 | Absorbance (450 nm) [2]: 0.132
